Common to all, as to experiment: IP-MS rep 1
In one test the target is T1, AT3G10480.3 NAC050 (Arabidopsis thaliana, UniProt Q9SQX9 1-447, limits assumed).
T1 construct: Endogenous protein found by mass spectrometry
T1 sequence (looked up): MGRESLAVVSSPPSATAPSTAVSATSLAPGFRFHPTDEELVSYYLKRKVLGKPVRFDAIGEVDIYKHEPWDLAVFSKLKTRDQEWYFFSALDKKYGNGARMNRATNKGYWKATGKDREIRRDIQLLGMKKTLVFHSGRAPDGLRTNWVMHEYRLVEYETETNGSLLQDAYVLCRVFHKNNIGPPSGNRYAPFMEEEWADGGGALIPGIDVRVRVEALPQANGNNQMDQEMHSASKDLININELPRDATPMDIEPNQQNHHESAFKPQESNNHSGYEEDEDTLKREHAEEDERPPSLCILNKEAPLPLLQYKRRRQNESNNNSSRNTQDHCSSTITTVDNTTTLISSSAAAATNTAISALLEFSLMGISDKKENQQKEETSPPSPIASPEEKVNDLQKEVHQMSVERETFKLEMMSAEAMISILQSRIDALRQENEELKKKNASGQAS
The gist of the method: (§1)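 Peptide counts for co-purified proteins come from mass spectrometry of proteins pulled down from Arabidopsis floral buds with anti-FLAG magnetic beads. Ten grams of unopened buds from wild-type and FLAG-tagged transgenic lines were ground in liquid nitrogen and homogenised in 25 mL IP buffer. Lysates were held with 250 μL anti-FLAG M2 magnetic beads at 4° C for 2 hours, and bound proteins were eluted in TBS with 250 μg/mL 3×FLAG peptides.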

A further test addresses T2, AT5G51230.1 EMF2 (Arabidopsis thaliana, UniProt Q8L6Y4 1-631).
T2 construct: Endogenous protein found by mass spectrometry; also called EMBRYONIC FLOWER 2
T2 sequence (looked up): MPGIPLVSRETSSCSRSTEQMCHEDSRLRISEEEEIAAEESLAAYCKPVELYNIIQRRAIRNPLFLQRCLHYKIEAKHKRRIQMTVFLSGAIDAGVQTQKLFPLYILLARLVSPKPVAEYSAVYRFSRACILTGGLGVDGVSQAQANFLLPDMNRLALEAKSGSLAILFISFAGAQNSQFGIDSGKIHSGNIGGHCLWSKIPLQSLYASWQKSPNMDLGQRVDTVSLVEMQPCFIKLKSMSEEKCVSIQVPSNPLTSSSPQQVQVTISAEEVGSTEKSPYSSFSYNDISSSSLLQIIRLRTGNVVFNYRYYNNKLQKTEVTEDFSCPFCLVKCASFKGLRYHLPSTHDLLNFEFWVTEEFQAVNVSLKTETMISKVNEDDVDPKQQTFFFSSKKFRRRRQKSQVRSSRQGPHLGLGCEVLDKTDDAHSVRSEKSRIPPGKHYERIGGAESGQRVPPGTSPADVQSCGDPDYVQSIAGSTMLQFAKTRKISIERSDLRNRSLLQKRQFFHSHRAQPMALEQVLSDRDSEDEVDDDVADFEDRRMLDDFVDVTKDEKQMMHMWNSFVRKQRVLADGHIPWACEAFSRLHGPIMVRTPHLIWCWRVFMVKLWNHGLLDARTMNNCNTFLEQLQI
The gist of the method: as §1

The target of a further test is T3, AT3G20740.1 FIE (Arabidopsis thaliana, UniProt Q9LT47 1-369).
T3 construct: Endogenous protein found by mass spectrometry; also called FERTILIZATION INDEPENDENT ENDOSPERM
T3 sequence (looked up): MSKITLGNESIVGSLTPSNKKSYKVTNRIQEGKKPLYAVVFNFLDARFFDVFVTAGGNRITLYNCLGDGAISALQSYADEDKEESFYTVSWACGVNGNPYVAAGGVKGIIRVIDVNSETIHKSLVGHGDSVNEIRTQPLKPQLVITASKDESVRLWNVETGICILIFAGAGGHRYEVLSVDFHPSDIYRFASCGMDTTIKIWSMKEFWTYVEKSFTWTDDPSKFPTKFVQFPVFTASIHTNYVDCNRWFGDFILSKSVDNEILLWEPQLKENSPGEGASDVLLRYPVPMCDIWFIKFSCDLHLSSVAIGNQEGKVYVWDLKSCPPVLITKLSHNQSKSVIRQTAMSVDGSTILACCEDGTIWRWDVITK
The gist of the method:
as §1

For a further test, the target named is T4, AT4G35510.1 TRBIP1 (Arabidopsis thaliana).
T4 construct: Endogenous protein found by mass spectrometry
T4 chain: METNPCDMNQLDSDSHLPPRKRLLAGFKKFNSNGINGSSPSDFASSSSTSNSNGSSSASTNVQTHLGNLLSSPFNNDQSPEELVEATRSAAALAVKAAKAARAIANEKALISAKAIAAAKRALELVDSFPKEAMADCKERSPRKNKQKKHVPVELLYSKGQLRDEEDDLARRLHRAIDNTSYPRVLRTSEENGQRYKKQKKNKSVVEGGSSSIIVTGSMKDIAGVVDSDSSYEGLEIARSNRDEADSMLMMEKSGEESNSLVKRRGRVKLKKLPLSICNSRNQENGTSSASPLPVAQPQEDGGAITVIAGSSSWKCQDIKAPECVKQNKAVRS
An outline of the steps: as §1

The next test has as its target T5, AT5G08450.1 HDC1 (Arabidopsis thaliana).
T5 construct: Endogenous protein found by mass spectrometry
The gist of the method: as §1

For another test, the target named is T6, AT5G67580.1 TRB2 (Arabidopsis thaliana, UniProt Q9FJW5 1-299).
T6 construct: Endogenous protein found by mass spectrometry
T6 sequence: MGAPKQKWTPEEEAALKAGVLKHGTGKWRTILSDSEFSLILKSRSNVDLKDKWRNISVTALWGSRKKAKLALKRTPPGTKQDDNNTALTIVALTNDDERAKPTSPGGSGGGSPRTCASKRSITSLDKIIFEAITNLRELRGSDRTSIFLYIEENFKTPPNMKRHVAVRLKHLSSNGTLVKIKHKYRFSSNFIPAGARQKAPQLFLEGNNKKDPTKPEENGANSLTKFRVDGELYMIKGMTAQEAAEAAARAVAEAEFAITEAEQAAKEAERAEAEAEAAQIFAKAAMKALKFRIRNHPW
An outline of the steps:
as §1

Another test has as its target T7, AT3G49850.1 TRB3 (Arabidopsis thaliana, UniProt Q9M2X3 1-295).
T7 construct: Endogenous protein found by mass spectrometry
T7 sequence: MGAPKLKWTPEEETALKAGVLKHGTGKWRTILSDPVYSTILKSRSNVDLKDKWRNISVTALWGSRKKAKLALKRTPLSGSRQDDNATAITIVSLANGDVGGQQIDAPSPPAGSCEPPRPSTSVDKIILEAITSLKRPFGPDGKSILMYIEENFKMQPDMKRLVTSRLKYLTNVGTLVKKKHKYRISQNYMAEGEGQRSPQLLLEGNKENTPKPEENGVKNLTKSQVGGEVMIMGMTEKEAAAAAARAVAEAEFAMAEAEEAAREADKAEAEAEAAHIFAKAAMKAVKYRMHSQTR
The gist of the method: as §1

Consider one molecule from patent publication US20250042956A1 (University of California, published 2025).

B1: TRBIP2 (bait of the TRBIP2 IP-MS) (other, not shown: small tags and cut ends)
chain: MATNACLESDSLLPPRKRLLAGFKNQNSRISNESPSPPFASSSSSTTTSNGSSASAVVHTHHLDHLLNDQTRSPEELAQASKATAALAVKVAKAARATANEKAIIASKAVAAAKNALELFASFPAAETVSCKEPRLIRAINNSPRVLTDCSGHRNKKQKTLTSTMNDGNDVAGVVDSDDGTRVNGKLLLCDNTLKEKTEEESSSLGKRRGRVKLPLSMCAYKDQENGITLEENNLSVSKSEGYNGGVAQVIERPSWKCQDLKSPECVKQNKVVRS
notes: tag and its position not described; also called TRBIP2-1; TRBIP2-2
Consider B1, for which the IP-MS count with AT3G10480.3 NAC050 is 1; with AT5G51230.1 EMF2, 0; in the test with AT3G20740.1 FIE it was 1; with AT4G35510.1 TRBIP1 it was 1; with AT5G08450.1 HDC1, 2; with AT5G67580.1 TRB2 it was 43. This molecule also had an IP-MS count with AT3G49850.1 TRB3 of 8.
